Measured values as given in paper PMC12328718.
Each block holds one substance with its values, some of them ahead of it.

Key:
SHMT2 WT = biological target: T1, SHMT2 WT (UniProt P34897); test: EMSA; conditions: EMSA: 20 mM HEPES pH 7.4, 150 mM NaCl, 20 ug/ml BSA, 0.1 ug tRNA, RNase inhibitor, 8% glycerol, 25 C, 30 min; 4% native PAGE in 0.5x TBE
T1 sequence: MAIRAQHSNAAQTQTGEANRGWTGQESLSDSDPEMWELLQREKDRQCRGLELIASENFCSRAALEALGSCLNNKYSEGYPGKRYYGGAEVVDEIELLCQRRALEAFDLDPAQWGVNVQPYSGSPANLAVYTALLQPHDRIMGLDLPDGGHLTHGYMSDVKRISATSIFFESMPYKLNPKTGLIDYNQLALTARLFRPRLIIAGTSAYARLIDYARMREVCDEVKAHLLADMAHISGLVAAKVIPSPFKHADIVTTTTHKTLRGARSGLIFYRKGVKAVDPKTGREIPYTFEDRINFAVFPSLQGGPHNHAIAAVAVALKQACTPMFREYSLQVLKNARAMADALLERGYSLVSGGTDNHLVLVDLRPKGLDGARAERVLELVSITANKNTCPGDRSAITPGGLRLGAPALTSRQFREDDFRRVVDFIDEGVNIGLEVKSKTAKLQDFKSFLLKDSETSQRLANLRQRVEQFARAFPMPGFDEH

SHMT2 K281S-R284S = test: SEC; Superdex 200 column (16/600), last step of the purification; 20 mM Hepes pH 7.2, 250 mM NaCl, 10% glycerol
[1] = biological target: Serine hydroxymethyltransferase 2 (SHMT2) wild type; test: as above

Substance: GGGAUAAAGAAAAAAGCGGUGAGUGGGCGAACUACAAUUCCCAAAAGGCCACAAAGGGGCCACCACUACGCAUGCGUAGAUCCCUCCCGUUAGCUUUGGCGCCUCAGCGAGCUCUUCUCGCGCAUGCGUUCUCCGAACGGUCUUCUUCCGACAGCUUGCUGCCCUAGACCAGAGUUGGUGGCUGGACCUCCUGCGACUUCCGAGUUGCG [UTR2 RNA]
Kd (SHMT2 WT): 560 nM

stoichiometry N (SHMT2 K281S-R284S): 4
Substance: SHMT2 K281S-R284S (enzyme)

stoichiometry N [1]: 4
Substance: Serine hydroxymethyltransferase 2 (SHMT2) wild type (enzyme)
